The text below walks through data of article PMC3821671 (Bacteriophage, 2013).

The assay addresses P167L Rho (E. coli, UniProt P0AG30 1-419, P167L). The assay can be described thus: pull-down.

B1: his-tagged WT Psu (polarity suppression protein, bacteriophage P4 capsid decorating protein) (natural protein)
chain: MESTALQQAFDTCQNNKAAWLQRKNELAAAEQEYLRLLSGEGRNVSRLDELRNIIEVRKWQVNQAAGRYIRSHEAVQHISIRDRLNDFMQQHGTALAAALAPELMGYSELTAIARNCAIQRATDALREALLSWLAKGEKINYSAQDSDILTTIGFRPDVASVDDSREKFTPAQNMIFSRKSAQLASRQSV
In the case of B1, the binding result is given as “binds”.
